Assay results: patent publication EP4786492A1 (Simcere Zaiming Pharmaceutical Co., Ltd., dated 2026)

Tests used:
[1] = target: T1, human DLL3-his protein (human, UniProt Q9NYJ7 27-492); assay: ELISA
T1 construct: also called human DLL3 protein; DLL3 antigen protein; not shown: His tag
T1 sequence: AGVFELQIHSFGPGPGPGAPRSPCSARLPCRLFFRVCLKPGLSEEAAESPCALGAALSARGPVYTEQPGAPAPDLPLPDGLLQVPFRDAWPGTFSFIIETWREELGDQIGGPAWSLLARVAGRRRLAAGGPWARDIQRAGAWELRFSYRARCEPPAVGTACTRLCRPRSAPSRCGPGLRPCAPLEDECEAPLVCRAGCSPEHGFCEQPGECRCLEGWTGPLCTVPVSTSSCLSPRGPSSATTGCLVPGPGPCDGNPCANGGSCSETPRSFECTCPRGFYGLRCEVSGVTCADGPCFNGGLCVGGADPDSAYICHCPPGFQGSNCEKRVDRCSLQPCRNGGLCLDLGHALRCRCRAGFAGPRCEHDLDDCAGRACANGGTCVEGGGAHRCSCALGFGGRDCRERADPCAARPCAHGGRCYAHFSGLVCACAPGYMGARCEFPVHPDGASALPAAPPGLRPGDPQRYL

[2] = target: T2, mouse DLL3 on CHO K1-mDLL3 cells (mouse, UniProt O88516 33-490); assay: FACS, CHO K1-mDLL3 cells
T2 construct: also called mouse DLL3 recombinant cell line
T2 sequence: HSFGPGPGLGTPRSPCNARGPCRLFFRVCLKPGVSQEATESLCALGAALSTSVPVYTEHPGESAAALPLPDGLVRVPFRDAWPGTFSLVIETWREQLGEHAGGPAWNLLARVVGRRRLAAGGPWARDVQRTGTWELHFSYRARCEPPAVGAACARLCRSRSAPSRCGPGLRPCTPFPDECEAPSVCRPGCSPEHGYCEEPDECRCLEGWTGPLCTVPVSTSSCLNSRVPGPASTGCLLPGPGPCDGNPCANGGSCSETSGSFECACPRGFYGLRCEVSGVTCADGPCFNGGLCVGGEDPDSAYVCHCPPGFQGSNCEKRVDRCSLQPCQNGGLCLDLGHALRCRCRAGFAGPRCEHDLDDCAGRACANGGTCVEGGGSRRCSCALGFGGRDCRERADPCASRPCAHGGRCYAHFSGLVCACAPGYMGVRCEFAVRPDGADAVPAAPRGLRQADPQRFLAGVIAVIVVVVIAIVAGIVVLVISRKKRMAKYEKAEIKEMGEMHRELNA

[3] = target: T3, monkey DLL3 on CHO K1-cyno DLL3 cells (cynomolgus monkey); assay: FACS, CHO K1-cyno DLL3 cells
T3 construct: also called monkey DLL3 recombinant cell line
T3 chain: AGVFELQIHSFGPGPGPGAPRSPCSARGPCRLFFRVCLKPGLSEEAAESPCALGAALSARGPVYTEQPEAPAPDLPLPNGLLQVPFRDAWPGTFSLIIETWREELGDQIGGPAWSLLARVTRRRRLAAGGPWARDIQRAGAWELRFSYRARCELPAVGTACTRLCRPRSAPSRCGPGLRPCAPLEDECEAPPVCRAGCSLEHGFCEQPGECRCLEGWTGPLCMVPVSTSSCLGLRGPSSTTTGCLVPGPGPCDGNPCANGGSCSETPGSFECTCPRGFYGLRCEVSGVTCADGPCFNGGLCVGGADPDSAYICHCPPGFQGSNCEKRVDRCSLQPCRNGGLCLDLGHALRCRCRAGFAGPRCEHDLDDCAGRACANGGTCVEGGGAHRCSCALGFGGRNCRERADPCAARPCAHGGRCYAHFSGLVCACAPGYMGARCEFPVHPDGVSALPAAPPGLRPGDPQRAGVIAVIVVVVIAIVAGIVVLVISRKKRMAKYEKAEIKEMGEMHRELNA

[4] = target: T4, human DLL3 on CHO-K1 hDLL3 cells (human, UniProt Q9NYJ7 27-492); assay: FACS, CHO-K1 hDLL3 cells
T4 construct: also called human DLL3 recombinant cell line
T4 sequence: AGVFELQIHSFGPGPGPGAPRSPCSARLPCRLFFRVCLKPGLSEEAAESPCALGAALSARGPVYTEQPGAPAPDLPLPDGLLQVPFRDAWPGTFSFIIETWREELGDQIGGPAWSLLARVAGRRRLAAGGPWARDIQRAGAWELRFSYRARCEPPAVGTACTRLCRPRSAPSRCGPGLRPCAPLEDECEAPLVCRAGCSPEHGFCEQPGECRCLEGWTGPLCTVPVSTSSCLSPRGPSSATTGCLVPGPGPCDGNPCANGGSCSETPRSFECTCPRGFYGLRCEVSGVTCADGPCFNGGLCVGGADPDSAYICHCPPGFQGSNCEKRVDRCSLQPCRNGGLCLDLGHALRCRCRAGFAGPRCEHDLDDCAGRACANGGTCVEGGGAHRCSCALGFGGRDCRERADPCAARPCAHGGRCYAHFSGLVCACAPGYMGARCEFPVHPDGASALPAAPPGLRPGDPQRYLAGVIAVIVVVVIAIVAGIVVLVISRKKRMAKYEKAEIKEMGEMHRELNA

[5] = target: T5, human DLL3 endogenously expressed on SHP77 and NCI-H82 cells (human, UniProt Q9NYJ7 27-618); assay: FACS, SHP77 and NCI-H82 cells
T5 construct: whole, on cells; cells endogenously expressing DLL3; also called SHP77 cells; SHP-77 cells
T5 sequence (looked up): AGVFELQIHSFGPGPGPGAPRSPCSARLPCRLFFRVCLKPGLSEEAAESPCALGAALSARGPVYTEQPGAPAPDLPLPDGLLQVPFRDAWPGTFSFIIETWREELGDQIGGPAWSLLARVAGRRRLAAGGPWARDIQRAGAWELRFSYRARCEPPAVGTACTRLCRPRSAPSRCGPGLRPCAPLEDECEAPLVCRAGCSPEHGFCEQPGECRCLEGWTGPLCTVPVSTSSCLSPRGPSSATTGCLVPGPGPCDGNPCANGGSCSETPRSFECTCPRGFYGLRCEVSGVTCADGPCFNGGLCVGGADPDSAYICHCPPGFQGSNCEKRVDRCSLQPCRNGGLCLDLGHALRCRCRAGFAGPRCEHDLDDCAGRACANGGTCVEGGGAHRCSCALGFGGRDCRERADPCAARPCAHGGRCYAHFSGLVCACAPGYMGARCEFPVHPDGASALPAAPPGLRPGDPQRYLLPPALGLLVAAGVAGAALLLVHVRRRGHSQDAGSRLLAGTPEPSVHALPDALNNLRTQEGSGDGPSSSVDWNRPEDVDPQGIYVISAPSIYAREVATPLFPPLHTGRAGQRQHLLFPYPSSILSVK

Measured: binding result

B1: Hab014VL1VH2-hFc (Fc fusion)
scFv (part 1 of 2): DIQMTQSPSSLSASVGDRVTITCKASEDIYNRLAWYQQKPGKVPKLLISGATSLETGVPSRFSGSGSGTDFTLTISSLQPEDVATYYCQQYWSLPWTFGGGTKVEIK
scFv (part 2 of 2): EVQLVQSGAEVKKPGASVKVSCKASGYTFTDYYMNWVRQAPGQRLEWMGDINPNHGDTGYNQKFTGRVTLTVDKSASTAYMELSSLRSEDTAVYYCARNFFYYGTTYGWYFDVWGQGTTVTVSS
notes: humanized mab014, VL-linker-VH-human IgG1 Fc; not shown: linker; human IgG1 Fc fragment
binds: [1] | [2] | [3] | [4] | [5]

B2: Hab014VL3VH1-hFc (Fc fusion)
scFv (part 1 of 2): DIVMTQSPDSLAVSLGERATINCKASEDIYNRLAWYQQKPGQTPKLLISGATSLETGVPDRFSGSGSGKDFTLTISSLQAEDVAVYYCQQYWSLPWTFGGGTKVEIK
scFv (part 2 of 2): EVQLVQSGAEVKKPGASVKVSCKASGYTFTDYYMNWVRQAPGQRLEWMGDINPNHGDTGYNQKFTGRVTITVDKSASTAYMELSSLRSEDTAVYYCARNFFYYGTTYGWYFDVWGQGTTVTVSS
notes: as for B1
binds: [1] | [2] | [3] | [4] | [5]

B3: Hab014VL2VH1-hFc (Fc fusion)
scFv (part 1 of 2): DIQMTQSPSSLSASVGDRVTITCKASEDIYNRLAWYQQKPGKVPKLLISGATSLETGVPSRFSGSGSGKDFTLTISSLQPEDVATYYCQQYWSLPWTFGGGTKVEIK
scFv (part 2 of 2): EVQLVQSGAEVKKPGASVKVSCKASGYTFTDYYMNWVRQAPGQRLEWMGDINPNHGDTGYNQKFTGRVTITVDKSASTAYMELSSLRSEDTAVYYCARNFFYYGTTYGWYFDVWGQGTTVTVSS
notes: as for B1
binds: [1] | [2] | [3] | [4] | [5]

B4: Hab015VL4VH1a-hFc (Fc fusion)
scFv (part 1 of 2): NIVLTQSPATLSLSPGERATLSCKASENVGTYVSWFQQKPGQSPRLLIYGASNRYTGIPARFSGSGSGTDFTLTISSLEPEDFAVYYCGQFYSFPSTFGGGTKVEIK
scFv (part 2 of 2): EVQLVESGGGLVKPGGSLRLSCAASGITFSNFWMNWVRQAPGKGLEWVGQIRLKSDDYATHYAESVKGRFTISREDSKNTVYLQMNSLKTEDTAVYYCTTGYYFDYWGQGTTVTVSS
notes: humanized mab015, VL-linker-VH-human IgG1 Fc; also called Hab015L4H1a; not shown: linker; human IgG1 Fc fragment
binds: [1] | [2] | [3] | [4] | [5]

B5: Hab015VL5VH1a-hFc (Fc fusion)
scFv (part 1 of 2): NIQMTQSPSSLSASVGDRVTITCKASENVGTYVSWYQQKPGKSPKLLIYGASNRYTGVPSRFSGSGSGTDFTLTISSLQPEDFATYYCGQFYSFPSTFGGGTKVEIK
scFv (part 2 of 2): EVQLVESGGGLVKPGGSLRLSCAASGITFSNFWMNWVRQAPGKGLEWVGQIRLKSDDYATHYAESVKGRFTISREDSKNTVYLQMNSLKTEDTAVYYCTTGYYFDYWGQGTTVTVSS
notes: humanized mab015, VL-linker-VH-human IgG1 Fc; also called Hab015L5H1a; not shown: linker; human IgG1 Fc fragment
binds: [1] | [2] | [3] | [4] | [5]

B6: Hab015VL4VH5a-hFc (Fc fusion)
scFv (part 1 of 2): NIVLTQSPATLSLSPGERATLSCKASENVGTYVSWFQQKPGQSPRLLIYGASNRYTGIPARFSGSGSGTDFTLTISSLEPEDFAVYYCGQFYSFPSTFGGGTKVEIK
scFv (part 2 of 2): EVQLVESGGGLVKPGGSLRLSCVASGITFSNFWMNWVRQAPGKGLEWVGQIRLKSDDYATHYAESVKGRFTISREDSKNTVYLQMNSLKTEDTAVYYCTTGYYFDYWGQGTTVTVSS
notes: humanized mab015, VL-linker-VH-human IgG1 Fc; also called Hab015L4H5a; not shown: linker; human IgG1 Fc fragment
binds: [1] | [2] | [3] | [4] | [5]

B7: Hab015VL4VH1b-hFc (Fc fusion)
scFv (part 1 of 2): NIVLTQSPATLSLSPGERATLSCKASENVGTYVSWFQQKPGQSPRLLIYGASNRYTGIPARFSGSGSGTDFTLTISSLEPEDFAVYYCGQFYSFPSTFGGGTKVEIK
scFv (part 2 of 2): EVQLVESGGGLVKPGGSLRLSCAASGITFSNFWMNWVRQAPGKGLEWVGQIRLKSEDYATHYAESVKGRFTISREDSKNTVYLQMNSLKTEDTAVYYCTTGYYFDYWGQGTTVTVSS
notes: humanized mab015, VL-linker-VH-human IgG1 Fc; also called Hab015L4H1b; not shown: linker; human IgG1 Fc fragment
binds: [1] | [2] | [3] | [4] | [5]

B8: Hab015VL5VH5a-hFc (Fc fusion)
scFv (part 1 of 2): NIQMTQSPSSLSASVGDRVTITCKASENVGTYVSWYQQKPGKSPKLLIYGASNRYTGVPSRFSGSGSGTDFTLTISSLQPEDFATYYCGQFYSFPSTFGGGTKVEIK
scFv (part 2 of 2): EVQLVESGGGLVKPGGSLRLSCVASGITFSNFWMNWVRQAPGKGLEWVGQIRLKSDDYATHYAESVKGRFTISREDSKNTVYLQMNSLKTEDTAVYYCTTGYYFDYWGQGTTVTVSS
notes: humanized mab015, VL-linker-VH-human IgG1 Fc; also called Hab015L5H5a; not shown: linker; human IgG1 Fc fragment
binds: [1] | [2] | [3] | [4] | [5]

B9: Hab015VL4VH6a-hFc (Fc fusion)
scFv (part 1 of 2): NIVLTQSPATLSLSPGERATLSCKASENVGTYVSWFQQKPGQSPRLLIYGASNRYTGIPARFSGSGSGTDFTLTISSLEPEDFAVYYCGQFYSFPSTFGGGTKVEIK
scFv (part 2 of 2): EVQLVESGGGLVKPGGSLRLSCAASGITFSNFWMNWVRQAPEKGLEWVGQIRLKSDDYATHYAESVKGRFTISREDSKNTVYLQMNSLKTEDTAVYYCTTGYYFDYWGQGTTVTVSS
notes: humanized mab015, VL-linker-VH-human IgG1 Fc; also called Hab015L4H6a; not shown: linker; human IgG1 Fc fragment
binds: [1] | [2] | [3] | [4] | [5]
